In paper PMC12719470 (Frontiers in Immunology, 2025):

Columns and labels:
Conditions in all cases: both partners purified
[1] = target: T1, TNFR2-His protein (Homo sapiens, UniProt P20333); assay: BLI; 30 nM Nanobody-161 IgG1 or mutant immobilised on Protein A biosensors (Gator); 4800 nM-300 nM TNFR2-His in Q Buffer (PBS, 0.02% Tween 20, 0.2% BSA); 25 °C; association 120 s, dissociation 180 s; global 1:1 Langmuir fit
T1 construct: Tumor necrosis factor receptor 2 (TNFR2), human; The BLI methods say only 'TNFR2-His protein'; It may be the E. coli ectodomain (residues 33-205, purified on a nickel column) or a bought protein (Sino Biological 10417-H03H); neither the source nor the species is named for this experiment; also called histidine-tagged TNFR2
T1 sequence (P20333 23-461): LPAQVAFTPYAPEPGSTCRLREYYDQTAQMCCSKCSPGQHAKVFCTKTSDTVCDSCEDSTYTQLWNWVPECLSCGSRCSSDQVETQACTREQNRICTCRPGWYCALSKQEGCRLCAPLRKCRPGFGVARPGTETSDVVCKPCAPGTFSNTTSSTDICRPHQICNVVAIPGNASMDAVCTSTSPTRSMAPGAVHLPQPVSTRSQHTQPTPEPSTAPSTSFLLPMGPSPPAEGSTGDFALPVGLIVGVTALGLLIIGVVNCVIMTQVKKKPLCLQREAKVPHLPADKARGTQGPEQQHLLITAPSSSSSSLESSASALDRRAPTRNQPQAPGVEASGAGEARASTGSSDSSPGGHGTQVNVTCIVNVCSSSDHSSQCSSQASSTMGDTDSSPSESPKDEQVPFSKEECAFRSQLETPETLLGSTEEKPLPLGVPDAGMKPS

[2] = target: T2, Nanobody-161 IgG1; assay: BLI; Gator system, 25 °C; 30 nM Nanobody-161 IgG1 or mutant immobilised on Protein A biosensors for 120 s; 4800 nM-300 nM TNFR2-His in Q Buffer (PBS, 0.02% Tween 20, 0.2% BSA); association 120 s, dissociation 180 s; global 1:1 Langmuir fit
T2 construct: CDR1 26-35, CDR2 50-59, CDR3 99-110); 78 kDa, called bivalent in the discussion; The methods nonetheless speak of heavy-chain and light-chain plasmids; source: ExpiCHO, transfected, purified from conditioned medium (MabSelect SuRe LX)

[3] = target: T3, Nanobody-161 IgG1 R29A; assay: as above
T3 construct: as the chain of m1 with the stated change

[4] = target: T4, Nanobody-161 IgG1 R53A; assay: as above
T4 construct: as the chain of m1 with the stated change

[5] = target: T5, Nanobody-161 IgG1 Q102A; assay: as above
T5 construct: as the chain of m1 with the stated change

[6] = target: T6, Nanobody-161 IgG1 F107G; assay: as above
T6 construct: as the chain of m1 with the stated change

[7] = target: T7, Nanobody-161 IgG1 R108A; assay: as above
T7 construct: as the chain of m1 with the stated change

Kd [1] [nM] | koff [1] [s⁻¹] | kon [1] [M⁻¹ s⁻¹] | binding result [2] | binding result [3] | binding result [4] | binding result [5] | binding result [6] | binding result [7] | Binder
81.5 | 0.000276 | 3390 | – | – | – | – | – | – | Nanobody-161 IgG1 (VHH, also called WT; source: ExpiCHO, purified (MabSelect SuRe LX)) VHH: EVQLVESGGGLVQPGGSLRLSCAASGSIRFINDMGWYRQAPGKGLELVAAIGRGGGSTNYADSVKGRFTISRDNAKNTLYLQMNSLRAEDTAVYYCHAEISQLGYAFRDYWGQGTLVTVSS
976 | 0.00382 | 3920 | – | – | – | – | – | – | Nanobody-161 IgG1 L103G (VHH, as the VHH of Wm1, with the stated change) VHH: EVQLVESGGGLVQPGGSLRLSCAASGSIRFINDMGWYRQAPGKGLELVAAIGRGGGSTNYADSVKGRFTISRDNAKNTLYLQMNSLRAEDTAVYYCHAEISQGGYAFRDYWGQGTLVTVSS
3780 | 0.0126 | 3340 | – | – | – | – | – | – | Nanobody-161 IgG1 F30G (VHH, as the VHH of Wm1, with the stated change) VHH: EVQLVESGGGLVQPGGSLRLSCAASGSIRGINDMGWYRQAPGKGLELVAAIGRGGGSTNYADSVKGRFTISRDNAKNTLYLQMNSLRAEDTAVYYCHAEISQLGYAFRDYWGQGTLVTVSS
– | – | – | binds | binds | binds | binds | binds | binds | TNFR2-His protein (receptor, UniProt P20333 23-461, looked up, TNFR2-His protein used as analyte in BLI; also called histidine-tagged TNFR2) APEPGSTCRLREYYDQTAQMCCSKCSPGQHAKVFCTKTSDTVCDSCEDSTYTQLWNWVPECLSCGSRCSSDQVETQACTREQNRICTCRPGWYCALSKQEGCRLCAPLRKCRPGFGVARPGTETSDVVCKPCAPGTFSNTTSSTDICRPHQICNVVAIPGNASMDAVCTSTSP

The remaining lines, values behind:

Binder | Kd [1] [nM] | koff [1] [s⁻¹] | kon [1] [M⁻¹ s⁻¹] | binding result [2] | binding result [3] | binding result [4] | binding result [5] | binding result [6] | binding result [7]
Nanobody-161 IgG1 R29A (VHH, as the VHH of Wm1, with the stated change) VHH: EVQLVESGGGLVQPGGSLRLSCAASGSIAFINDMGWYRQAPGKGLELVAAIGRGGGSTNYADSVKGRFTISRDNAKNTLYLQMNSLRAEDTAVYYCHAEISQLGYAFRDYWGQGTLVTVSS | 631 | 0.002 | 3170 | – | – | – | – | – | –
Nanobody-161 IgG1 R108A (VHH, as the VHH of Wm1, with the stated change) VHH: EVQLVESGGGLVQPGGSLRLSCAASGSIRFINDMGWYRQAPGKGLELVAAIGRGGGSTNYADSVKGRFTISRDNAKNTLYLQMNSLRAEDTAVYYCHAEISQLGYAFADYWGQGTLVTVSS | 186 | 0.000877 | 4730 | – | – | – | – | – | –
Nanobody-161 IgG1 Q102A (VHH, as the VHH of Wm1, with the stated change) VHH: EVQLVESGGGLVQPGGSLRLSCAASGSIRFINDMGWYRQAPGKGLELVAAIGRGGGSTNYADSVKGRFTISRDNAKNTLYLQMNSLRAEDTAVYYCHAEISALGYAFRDYWGQGTLVTVSS | 212 | 0.000699 | 3290 | – | – | – | – | – | –
Nanobody-161 IgG1 R53A (VHH, as the VHH of Wm1, with the stated change) VHH: EVQLVESGGGLVQPGGSLRLSCAASGSIRFINDMGWYRQAPGKGLELVAAIGAGGGSTNYADSVKGRFTISRDNAKNTLYLQMNSLRAEDTAVYYCHAEISQLGYAFRDYWGQGTLVTVSS | 79.5 | 0.000321 | 4030 | – | – | – | – | – | –
Nanobody-161 IgG1 S101A (VHH, as the VHH of Wm1, with the stated change) VHH: EVQLVESGGGLVQPGGSLRLSCAASGSIRFINDMGWYRQAPGKGLELVAAIGRGGGSTNYADSVKGRFTISRDNAKNTLYLQMNSLRAEDTAVYYCHAEIAQLGYAFRDYWGQGTLVTVSS | 1720 | 0.00926 | 5370 | – | – | – | – | – | –
